These results are taken from publication PMC11229316, “Insights into the molecular mechanism of ParABS system in chromosome partition by HpParA and HpParB” (Nucleic Acids Research, 2024).

The target of series [1] is T1, HpParB (HpSpo0J) (Helicobacter pylori, UniProt O25758 1-290).
T1 sequence: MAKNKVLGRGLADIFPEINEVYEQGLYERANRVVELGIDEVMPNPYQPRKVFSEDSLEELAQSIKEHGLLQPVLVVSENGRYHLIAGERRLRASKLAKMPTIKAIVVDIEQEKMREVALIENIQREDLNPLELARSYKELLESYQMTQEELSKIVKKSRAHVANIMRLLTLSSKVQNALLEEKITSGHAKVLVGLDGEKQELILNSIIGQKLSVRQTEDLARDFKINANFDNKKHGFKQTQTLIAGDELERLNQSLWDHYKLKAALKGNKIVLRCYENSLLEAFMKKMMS
The series can be described thus: fluorescence polarization; no CTP, 5 mM Mg2+; FP: 20 mM Tris-HCl pH 8.0, 175 mM NaCl, 5 mM MgCl2, 10% glycerol, 1 mM ATP or CTP, 5 nM DNA, room temperature; EMSA: 20 mM Tris-HCl pH 8.0, 50 mM NaCl, 11 mM imidazole, 5 mM MgCl2, 10% glycerol, +/- 2 mM CTP, 37 C, gel at 4 C. As to conditions: protein: recombinant; tags: His (Ni-NTA purified); chain copies: 2; label: 5' Cy3 (FP dye assignment inferred from EMSA); blunt.

In series [2] the target is T1, HpParB (HpSpo0J). Kind of series: fluorescence polarization; 1 mM CTP, 5 mM Mg2+; FP: 20 mM Tris-HCl pH 8.0, 175 mM NaCl, 5 mM MgCl2, 10% glycerol, 1 mM ATP or CTP, 5 nM DNA, room temperature; EMSA: 20 mM Tris-HCl pH 8.0, 50 mM NaCl, 11 mM imidazole, 5 mM MgCl2, 10% glycerol, +/- 2 mM CTP, 37 C, gel at 4 C. As to conditions: protein: recombinant, tags: His (Ni-NTA purified), chain copies: 2, blunt. A general note: Fluorescence polarisation rises when a labelled molecule tumbles more slowly, as on binding a larger partner.

The target in the next series is T2, Ct-HpParB (Helicobacter pylori, UniProt O25758 1-240).
T2 sequence: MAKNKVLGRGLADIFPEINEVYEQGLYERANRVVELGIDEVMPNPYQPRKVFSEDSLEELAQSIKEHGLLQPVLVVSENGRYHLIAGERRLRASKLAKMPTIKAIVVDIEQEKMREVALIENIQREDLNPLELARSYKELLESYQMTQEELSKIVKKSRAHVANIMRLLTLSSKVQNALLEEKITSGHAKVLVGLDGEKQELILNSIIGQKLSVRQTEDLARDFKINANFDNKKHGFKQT
Kind of series: EMSA; no CTP; FP: 20 mM Tris-HCl pH 8.0, 175 mM NaCl, 5 mM MgCl2, 10% glycerol, 1 mM ATP or CTP, 5 nM DNA, room temperature; EMSA: 20 mM Tris-HCl pH 8.0, 50 mM NaCl, 11 mM imidazole, 5 mM MgCl2, 10% glycerol, +/- 2 mM CTP, 37 C, gel at 4 C. As to conditions: protein: recombinant; chain copies: 2; label: none (GelRed stain); blunt. For orientation: A gel shift assay detects complexes by their altered migration in electrophoresis.

For series [3], the target named is T3, HpParAD41A, ATP hydrolysis-deficient mutant of Helicobacter pylori ParA (Helicobacter pylori, UniProt O25759, D41A).
T3 construct: also called HpSojD41A; source: recombinant, grown in Luria-Bertani medium, induced with IPTG, purified as HpParA (Ni-NTA, SEC)
T3 sequence: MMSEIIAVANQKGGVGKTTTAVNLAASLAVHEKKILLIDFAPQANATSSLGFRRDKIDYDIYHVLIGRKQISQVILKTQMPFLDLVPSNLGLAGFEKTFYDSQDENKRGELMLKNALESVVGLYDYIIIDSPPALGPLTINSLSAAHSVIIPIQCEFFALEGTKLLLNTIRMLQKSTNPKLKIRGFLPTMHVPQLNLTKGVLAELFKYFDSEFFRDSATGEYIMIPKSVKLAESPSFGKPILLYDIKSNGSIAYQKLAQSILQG
Kind of series: MST; 5-FAM-Ahx-labeled peptide (200 nM) mixed 1:1 with 16 serial dilutions of unlabeled HpParA or HpParAD41A (300 μM); 20 mM Tris-HCl pH 8.0, 5% glycerol, 200 mM NaCl, 50 mM imidazole, 5 mM MgCl2, 0.05% Tween20; 25°C; the results speak of ParA-DNA complexes. As to conditions: both partners purified.

Another series deals with T4, HpParA (HpSoj) (Helicobacter pylori, UniProt O25759 1-264).
T4 sequence: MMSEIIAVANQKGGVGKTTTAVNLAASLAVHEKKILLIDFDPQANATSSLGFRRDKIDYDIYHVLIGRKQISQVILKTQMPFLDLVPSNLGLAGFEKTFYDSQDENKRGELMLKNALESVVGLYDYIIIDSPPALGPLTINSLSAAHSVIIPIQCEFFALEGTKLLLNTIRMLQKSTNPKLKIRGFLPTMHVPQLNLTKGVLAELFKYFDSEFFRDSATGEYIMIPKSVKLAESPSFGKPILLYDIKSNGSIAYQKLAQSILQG
The series can be described thus: fluorescence polarization; 1 mM ATP, 5 mM Mg2+; FP: 20 mM Tris-HCl pH 8.0, 175 mM NaCl, 5 mM MgCl2, 10% glycerol, 1 mM ATP or CTP, 5 nM DNA, room temperature; EMSA: 20 mM Tris-HCl pH 8.0, 50 mM NaCl, 11 mM imidazole, 5 mM MgCl2, 10% glycerol, +/- 2 mM CTP, 37 C, gel at 4 C. As to conditions: protein: recombinant; tags: His (Ni-NTA purified); label: 5' Cy5 in EMSA; FP label Cy3 or Cy5 not specified per DNA; blunt.

In a further series the target is HpParAD41A (Helicobacter pylori, UniProt O25759 1-264, D41A). The series is described as above. As to conditions: protein: recombinant; tags: His (Ni-NTA purified); label: 5' Cy5 in EMSA; FP label Cy3 or Cy5 not specified per DNA; blunt.
Series [4] concerns the target T5, HpParA (HpSoj);HpParB (HpSpo0J) (Helicobacter pylori;Helicobacter pylori, UniProt O25759;O25758 1-264;1-290, |).
T5 sequence 1: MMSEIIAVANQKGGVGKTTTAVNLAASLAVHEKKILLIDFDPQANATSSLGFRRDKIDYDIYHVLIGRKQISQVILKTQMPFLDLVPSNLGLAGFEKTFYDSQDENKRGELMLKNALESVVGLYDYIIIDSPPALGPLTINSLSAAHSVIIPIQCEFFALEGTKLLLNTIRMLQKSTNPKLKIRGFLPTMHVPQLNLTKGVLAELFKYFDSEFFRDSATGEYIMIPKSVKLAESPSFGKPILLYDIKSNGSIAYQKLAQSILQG
T5 sequence 2: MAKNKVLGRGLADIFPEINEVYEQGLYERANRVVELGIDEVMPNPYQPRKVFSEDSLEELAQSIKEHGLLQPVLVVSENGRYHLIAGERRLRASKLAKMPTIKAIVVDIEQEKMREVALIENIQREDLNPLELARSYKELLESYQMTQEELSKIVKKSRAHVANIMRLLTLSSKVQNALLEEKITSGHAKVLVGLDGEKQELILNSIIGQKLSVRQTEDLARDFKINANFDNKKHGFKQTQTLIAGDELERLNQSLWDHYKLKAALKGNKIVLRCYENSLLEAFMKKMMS
Kind of series: EMSA; no CTP; NAC1 with Cy3-parS (N3) also in complex; FP: 20 mM Tris-HCl pH 8.0, 175 mM NaCl, 5 mM MgCl2, 10% glycerol, 1 mM ATP or CTP, 5 nM DNA, room temperature; EMSA: 20 mM Tris-HCl pH 8.0, 50 mM NaCl, 11 mM imidazole, 5 mM MgCl2, 10% glycerol, +/- 2 mM CTP, 37 C, gel at 4 C. As to conditions: protein: recombinant;recombinant; tags: His (Ni-NTA purified); label: 5' Cy5 in EMSA; FP label Cy3 or Cy5 not specified per DNA; blunt.

Series [5] concerns the target HpParAD41A;HpParB (HpSpo0J) (Helicobacter pylori;Helicobacter pylori, UniProt O25759;O25758 1-264;1-290, D41A|). The series can be described thus: EMSA; no CTP; NAC3 with Cy3-parS (N3) also in complex; FP: 20 mM Tris-HCl pH 8.0, 175 mM NaCl, 5 mM MgCl2, 10% glycerol, 1 mM ATP or CTP, 5 nM DNA, room temperature; EMSA: 20 mM Tris-HCl pH 8.0, 50 mM NaCl, 11 mM imidazole, 5 mM MgCl2, 10% glycerol, +/- 2 mM CTP, 37 C, gel at 4 C. As to conditions: protein: recombinant;recombinant; tags: His (Ni-NTA purified); label: 5' Cy5 in EMSA; FP label Cy3 or Cy5 not specified per DNA; blunt.

No end group written: not given here.

B1: Cy3-parS 24-bp (dsDNA)
DNA 1: AGGGTGTTCCACGTGAAACAGGGA
DNA 2: TCCCTGTTTCACGTGGAACACCCT
With B1, the Kd – broadly, the equilibrium constant for the complex coming apart – in the series with HpParB (HpSpo0J) [1] worked out at 63.4 ± 5.6 nM; with HpParB (HpSpo0J) [2] (label: 5' Cy3 (FP dye assignment inferred from EMSA)), 232 ± 42 nM.

B2: nsDNA 24-bp (dsDNA)
DNA 1: TCCTATGAATTGCTATGGCAAGCG
DNA 2: CGCTTGCCATAGCAATTCATAGGA
B2: the binding result with Ct-HpParB is “no binding”.

B3: HpParBN10, N-terminal peptide of HpParB (residues 1-10) (peptide)
peptide: MAKNKVLGRG
modifications: not fully specified (N-terminus); also: labeled with 5-FAM-Ahx fluorophore, site not given here
notes: residues 1-10 of Helicobacter pylori Spo0J/ParB (HP1138); The methods describe only the 5-FAM-Ahx-labelled peptide; also called HpSpo0JN10; source: synthetic peptide, bought: MDBio, inc
In turn, B3 yielded a Kd in series [3] of 5300 ± 1100 nM.

B4: Cy5/Cy3-labeled nsDNA 24-bp (dsDNA)
DNA 1: TCCTATGAATTGCTATGGCAAGCG
DNA 2: CGCTTGCCATAGCAATTCATAGGA
Take B4: the Kd in the series with HpParA (HpSoj) turned out to be 117 ± 15.2 nM; with HpParAD41A, 149 ± 18.1 nM; with HpParB (HpSpo0J) [2] (label: 5' Cy5 in EMSA, FP label Cy3 or Cy5 not specified per DNA), 145 ± 28.8 nM. Besides, the binding result in series [4] and in series [5] was “binds” in each case.
